Reference: PMC10159624
pKd: −log10 of the molar value. Several values for one entry are separate records, joined by “and”; a condition that tells them apart may be missing. Equal values may be shown once.

Assays:
Test in all cases: EMSA
Settings in all cases: 25 mM Tris pH 8.0, 100 mM KCl, 10 mM MgCl2, 10% glycerol, 1 mM TCEP, +/- 5 mM ATP-MgOAc2, 20 pM dsRNA, 30 min at 4 C; 5% native PAGE in 0.5x TBE at 4 C
[1] = tested on: AncD1ARTH/LOPH/DEUT HEL-DUF (reconstructed ancestor (arthropod/lophotrochozoan/deuterostome Dicer-1, ML tree))
[2] = tested on: AncD1DEUT HEL-DUF (reconstructed ancestor (deuterostome Dicer-1, ML tree))
[3] = tested on: AncD1D2 HEL-DUF (reconstructed ancestor (animal Dicer-1/Dicer-2, ML tree))
[4] = tested on: AncD1LOPH/DEUT HEL-DUF (reconstructed ancestor (lophotrochozoan/deuterostome Dicer-1, ML tree))
[5] = tested on: AncD1VERT HEL-DUF (reconstructed ancestor (vertebrate Dicer-1, ML tree))

| Sequence | pKd [1] | pKd [2] | pKd [3] | pKd [4] | pKd [5] |
| --- | --- | --- | --- | --- | --- |
| GGGAAGCUCAGAAUAUUGCACAAGUAGAGCUUCUCGAUCCCC / GGAUCGAGAAGCUCUACUUGUGCAAUAUUCUGAGCUUCCCGG [42-bp 3'ovr dsRNA] | 7.40 and 7.76 | 6.85 and 6.82 | 8.19 and 7.80 | 7.31 and 7.04 | 6.27 and 6.30 |
| GGGAAGCUCAGAAUAUUGCACAAGUAGAGCUUCUCGAUCCCC / GGGGAUCGAGAAGCUCUACUUGUGCAAUAUUCUGAGCUUCCC [42-bp BLT dsRNA] | 7.62 and 7.76 | 6.84 and 6.88 | 8.47 and 8.19 | 7.42 and 7.22 | 6.30 and 6.23 |
